Earlier results on 1 substance are cited in PMC5429092.

For orientation: Kd means the equilibrium constant for the complex coming apart.

The target in the data set is PP1 (Homo sapiens) (UniProt P62136). Nature of the data set: ITC. (In ITC the heat of successive injections is recorded.)
UniProt P62136, sequence (P62136 2-330): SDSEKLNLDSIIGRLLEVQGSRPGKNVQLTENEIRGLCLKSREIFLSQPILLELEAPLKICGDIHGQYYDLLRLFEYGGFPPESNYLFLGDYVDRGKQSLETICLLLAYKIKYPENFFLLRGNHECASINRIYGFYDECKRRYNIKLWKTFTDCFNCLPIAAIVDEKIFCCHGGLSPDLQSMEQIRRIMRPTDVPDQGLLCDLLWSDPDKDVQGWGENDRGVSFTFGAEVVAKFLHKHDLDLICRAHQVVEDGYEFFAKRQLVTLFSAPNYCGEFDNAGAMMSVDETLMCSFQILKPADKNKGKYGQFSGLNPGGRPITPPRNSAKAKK

Turning to PPP1R15A (from UniProt O75807), the Kd was 62 nM.
